Results from PMC9974510, “Structure of metallochaperone in complex with the cobalamin-binding domain of its target mutase provides insight into cofactor delivery” (Proceedings of the National Academy of Sciences of the …, 2023).

B1: Cbl-binding domain of the alpha subunit of Methylobacterium extorquens methylmalonyl-CoA mutase (domain or fragment, UniProt C5AV67 545-712, looked up)
chain: RAQIRSISGVYKREVGGMSPVVEKVRGLVEAFEENDGRRPRILVAKMGQDGHDRGQKVIASAFADLGFDVDIGPLFATPDEAARQAVENDVHIVGVSSLAAGHLTLVPELKAALKQEGRDDVMIVVGGVIPPGDYDALYAAGASAIFPPGTVIAEAAVNLLGELNTRL
notes: alpha subunit has 712 residues; Two constructs were made (N-terminal HisTag, of low solubility; C-terminal HisTag in pET28a at NcoI and XhoI); The crystal holds the C-terminal HisTag form (residues 713 to 714 of the tag modelled in chain C); the same form is surmised for the SEC and GTPase experiments; also called MeMCMcbl; MCMcbl; source: E. coli Bl21 T7 Express, purified (Ni-NTA, Superdex75 …)
B2: MeaB from Methylobacterium extorquens (natural protein, UniProt Q8RPA0 1-329, looked up)
chain: MSATLPDMDTLRERLLAGDRAALARAITLAESRRADHRAAVRDLIDAVLPQTGRAIRVGITGVPGVGKSTTIDALGSLLTAAGHKVAVLAVDPSSTRTGGSILGDKTRMARLAIDRNAFIRPSPSSGTLGGVAAKTRETMLLCEAAGFDVILVETVGVGQSETAVADLTDFFLVLMLPGAGDELQGIKKGILELADMIAVNKADDGDGERRASAAASEYRAALRILTPPSATWTPPVVTISGLHGKGLDSLWSRIEGHRSKLTATGEIAGKRREQDVKWMWALVHERLHQRLVGSAEVRQATAEAERAVAGGEHSPAAGADAIATLIGL
notes: MeaB, G-protein chaperone of methylmalonyl-CoA mutase, Methylobacterium extorquens, WP_003597297.1; 329 residues (Met1 to Leu329 of 329 named in the model of chain B); Synthetic gene in pET28a at NdeI and XhoI; also called G-protein metallochaperone MeaB; source: E. coli Bl21 T7 Express, purified (Ni-NTA, Superdex 200 SEC)

Experiments:
[1] = molecular target: B2; experiment: cell-based or functional assay
[2] = molecular target: the molecule itself; experiment: SEC; analytical Superdex200 Increase 10/300 GL; each protein alone (50 µM MeaB); apparent molecular weights against gel filtration standards; 50 mM HEPES pH 7.5, 500 mM NaCl
[3] = molecular target: B2; experiment: SEC; analytical Superdex200 Increase 10/300 GL; 50 µM MeaB and 100 µM MeMCMcbl preincubated with 500 µM GMPPCP and 1 mM MgCl2; 50 mM HEPES pH 7.5, 500 mM NaCl; peaks identified by SDS-PAGE; conditions: both partners purified

| Binder | GTPase activity of MeaB (2 µM) with MeMCMcbl (4 µM), 500 µM GTP: inorganic phosphate produced, against MeaB alone [1] | stoichiometry N [2] | stoichiometry N [3] |
| --- | --- | --- | --- |
| B1 | 25 fold | 2 | 1 MeMCMcbl dimer per MeaB dimer |
| B2 |  | 2 |  |
